In US20200040057A1 (IMMATICS BIOTECHNOLOGIES, published 2020):

B1: DDX5-001 (YLLPAIVHI from DDX5) (peptide)
peptide: YLLPAIVHI
notes: Negative control peptide for stimulations; also called 447

target: HLA-A*02:01 (human); experiment: control peptide-MHC complex on beads, in vitro T-cell priming
Protocol: 800.000 beads/200 μl were coated in 96-well plates in the presence of 4×12.5 ng different biotin-pMHC, washed and 600 ng biotin anti-CD28 were added subsequently in a volume of 200 μl. Stimulations were initiated in 96-well plates by co-incubating 1×10⁶ CD8+ T cells with 2×10⁵ washed coated beads in 200 μl TCM supplemented with 5 ng/ml IL-12 (PromoCell) for 3 days at 37° C. Half of the medium was then exchanged by fresh TCM supplemented with 80 U/ml IL-2 and incubating was continued for four days at 37° C. This stimulation cycle was performed for a total of three times. […] Finally, multimeric analyses were performed by staining the cells with Live/dead near IR dye (Invitrogen, Karlsruhe, Germany), CD8-FITC antibody clone SK1 (BD, Heidelberg, Germany) and fluorescent pMHC multimers. For analysis, a BD LSRII SORP cytometer equipped with appropriate lasers and filters was used. Peptide specific cells were calculated as percentage of total CD8+ cells. Evaluation of multimeric analysis was done using the FlowJo software (Tree Star, Oregon, USA). In vitro priming of specific multimer+CD8+ lymphocytes was detected by comparing to negative control stimulations.

Does B1 bind?
Result: binds

target: HLA-B*07 (human); experiment: UV peptide exchange ELISA; ++ = yield >20%

Which peptide exchange yield does the source give for MARTGGMVVI here?
Its peptide exchange yield is 20 to 50%.

Which peptide exchange yield does the source give for AVSSHHNVI here?
The peptide exchange yield was 20 to 50%.

LPLLAGTLLL was tested. Which peptide exchange yield did it give?
Its peptide exchange yield is 20 to 50%.

How did the peptide exchange yield turn out when SVIGPNSRL was run?
The peptide exchange yield was 20 to 50%.

Which peptide exchange yield does the source give for HAAASFETL here?
Its peptide exchange yield is 20 to 50%.

For KAHVRIEL, which peptide exchange yield is on record?
The peptide exchange yield was 20 to 50%.

Which peptide exchange yield does the source give for TVYGEPRKL here?
Its peptide exchange yield is 20 to 50%.

For IPFADVKSF, which peptide exchange yield is on record?
The peptide exchange yield was 20 to 50%.

With LPMPAITWY as the binder, how does the peptide exchange yield read?
The peptide exchange yield was 20 to 50%.

Which peptide exchange yield does the source give for SPFWIHQA here?
Its peptide exchange yield is 20 to 50%.

With SVPVATVEL as the binder, how does the peptide exchange yield read?
The peptide exchange yield was 20 to 50%.

With YGPYGSGSGW as the binder, how does the peptide exchange yield read?
Its peptide exchange yield is 20 to 50%.

How did the peptide exchange yield turn out when VPAHLVAA was run?
The peptide exchange yield was 20 to 50%.

Which peptide exchange yield does the source give for TPTRPLPSA here?
The peptide exchange yield was 20 to 50%.

Which peptide exchange yield does the source give for RPSGTAGAALLA here?
Its peptide exchange yield is 20 to 50%.

With ALLLRGVTL as the binder, how does the peptide exchange yield read?
Its peptide exchange yield is 20 to 50%.

With VIINNPISL as the binder, how does the peptide exchange yield read?
The peptide exchange yield was 20 to 50%.

How did the peptide exchange yield turn out when FLIPRAGWLAGL was run?
The peptide exchange yield was 20 to 50%.

How did the peptide exchange yield turn out when LPPHIFAI was run?
Its peptide exchange yield is 20 to 50%.

With LPELPTTLTF as the binder, how does the peptide exchange yield read?
The peptide exchange yield was 20 to 50%.

How did the peptide exchange yield turn out when MPPLLIVAF was run?
The peptide exchange yield was 20 to 50%.

How did the peptide exchange yield turn out when LPASAEPKGTM was run?
The peptide exchange yield was 20 to 50%.

How did the peptide exchange yield turn out when REPIMKADML was run?
Its peptide exchange yield is 20 to 50%.

For IPVSHPVLTF, which peptide exchange yield is on record?
Its peptide exchange yield is 20 to 50%.

How did the peptide exchange yield turn out when EPNPVEEIF was run?
The peptide exchange yield was 20 to 50%.

Which peptide exchange yield does the source give for MALSVLRLAL here?
Its peptide exchange yield is 20 to 50%.

How did the peptide exchange yield turn out when FTVSSSSAM was run?
Its peptide exchange yield is 20 to 50%.

For SPAKQFNIY, which peptide exchange yield is on record?
The peptide exchange yield was 20 to 50%.

Which peptide exchange yield does the source give for IPENRVVSY here?
Its peptide exchange yield is 20 to 50%.

How did the peptide exchange yield turn out when SQRPPATSQA was run?
The peptide exchange yield was 20 to 50%.

How did the peptide exchange yield turn out when IALMKLAGPL was run?
The peptide exchange yield was 20 to 50%.

FVPPSGPSNPM was tested. Which peptide exchange yield did it give?
Its peptide exchange yield is 20 to 50%.

How did the peptide exchange yield turn out when TDTPSTTPTTI was run?
The peptide exchange yield was 20 to 50%.

For AAHEFGHVL, which peptide exchange yield is on record?
Its peptide exchange yield is 20 to 50%.

SPLIGDFPAF was tested. Which peptide exchange yield did it give?
Its peptide exchange yield is 20 to 50%.

KPRGPIDI was tested. Which peptide exchange yield did it give?
Its peptide exchange yield is 20 to 50%.

How did the peptide exchange yield turn out when KPSAVKDSIY was run?
Its peptide exchange yield is 20 to 50%.

Which peptide exchange yield does the source give for EPLSVTASY here?
Its peptide exchange yield is 20 to 50%.

For MTLPATTLTL, which peptide exchange yield is on record?
The peptide exchange yield was 20 to 50%.

With KIIASGNHL as the binder, how does the peptide exchange yield read?
The peptide exchange yield was 20 to 50%.

ASKILETSL was tested. Which peptide exchange yield did it give?
The peptide exchange yield was 20 to 50%.

With GAYDKARYL as the binder, how does the peptide exchange yield read?
Its peptide exchange yield is 20 to 50%.

For IAYPSLREAAL, which peptide exchange yield is on record?
Its peptide exchange yield is 20 to 50%.

With IPVAIKEL as the binder, how does the peptide exchange yield read?
Its peptide exchange yield is 20 to 50%.

How did the peptide exchange yield turn out when APAAPAAVPS was run?
The peptide exchange yield was 20 to 50%.

For MPEADLKRIF, which peptide exchange yield is on record?
Its peptide exchange yield is 20 to 50%.

target: HLA-B*07 (human); experiment: UV peptide exchange ELISA; + = yield >10%

For MPREDAHF, which peptide exchange yield is on record?
Its peptide exchange yield is 10 to 20%.

For LPKPDLPQLI, which peptide exchange yield is on record?
Its peptide exchange yield is 10 to 20%.

For SAAARALLP, which peptide exchange yield is on record?
The peptide exchange yield was 10 to 20%.

For KSKQVITLL, which peptide exchange yield is on record?
Its peptide exchange yield is 10 to 20%.

For KATEYVHSL, which peptide exchange yield is on record?
Its peptide exchange yield is 10 to 20%.

How did the peptide exchange yield turn out when AQNPAGTAL was run?
The peptide exchange yield was 10 to 20%.

IPFSVDEI was tested. Which peptide exchange yield did it give?
The peptide exchange yield was 10 to 20%.

How did the peptide exchange yield turn out when KPGLPGLK was run?
Its peptide exchange yield is 10 to 20%.

With VPLPAGGGTVLT as the binder, how does the peptide exchange yield read?
The peptide exchange yield was 10 to 20%.

For YPLQQTNVY, which peptide exchange yield is on record?
The peptide exchange yield was 10 to 20%.

LPLQQYKLV was tested. Which peptide exchange yield did it give?
The peptide exchange yield was 10 to 20%.

With IPLEIQKL as the binder, how does the peptide exchange yield read?
The peptide exchange yield was 10 to 20%.

MLKTTLTAF was tested. Which peptide exchange yield did it give?
Its peptide exchange yield is 10 to 20%.

For LPLKFFPII, which peptide exchange yield is on record?
Its peptide exchange yield is 10 to 20%.
